Laboratory results reported in paper PMC6983393.

Molecular target: K. lactis 80S ribosome (40S and 60S subunits) (K. lactis)
Assay: co-sedimentation; 30 pmol eIF5B, 15 pmol K. lactis 80S ribosomes, 0.1 mM GDPNP in 30 uL of 20 mM Hepes pH 7.4, 50 mM KCl, 2 mM DTT, 2.5 mM Mg-acetate, 30 C for 5 min; pelleted through a 1 M sucrose cushion (80,000 rpm, 3 h, 4 C); pellets on SDS/PAGE, Coomassie, bands quantified and normalised to WT

fold reduction in ribosomal binding against WT [fold]	Substance
2	eIF5B-YxA mutant (K. lactis eIF5B 361-967, Tyr837 in S. cerevisiae numbering / Tyr802 in K. lactis substituted to alanine) (domain or fragment)
2	eIF5B-DIII-h12-Loop mutant (K. lactis eIF5B 361-967, residues 835-839 in S. cerevisiae numbering / 800-804 in K. lactis substituted to alanine) (domain or fragment)
